{
  "source": "patent US8398971B2",
  "about": "“Methods, compounds, and compositions for treatment and prophylaxis in the respiratory tract” (NexBio, Inc., priority 2009, dated 2013)",
  "key": {"[1]": {"details": "pH 5; cited from earlier work"}, "influenza A (H1N1) virus": {"tested_on": "influenza A (H1N1) virus", "format": "in vivo, ferrets", "details": "for inflammatory response of infected ferrets: topical administration"}, "[2]": {"tested_on": "guinea pig model of allergic asthma", "assay": "allergen-induced early asthmatic reaction (PenH) in conscious unrestrained guinea pigs", "format": "in vivo", "details": "for decrease of early asthmatic reaction (PenH) after OVA aerosol: OVA guinea pigs; for basal PenH: guinea pig, in vivo, 0.3 mg/kg"}, "[3]": {"tested_on": "guinea pig model of allergic asthma", "assay": "cell count and differentiation in broncho-alveolar lavage fluid of guinea pigs", "format": "in vivo"}, "[4]": {"tested_on": "acute OVA challenge mouse model of asthma", "format": "in vivo, BALB/c mice", "details": "0.6 mg/kg intranasal one hour prior to each OVA challenge; day 31"}, "[5]": {"tested_on": "acute OVA challenge mouse model of asthma", "assay": "blood eosinophil counts in OVA mouse model of asthma", "format": "in vivo, BALB/c mice", "details": "0.6 mg/kg intranasal"}, "[6]": {"tested_on": "acute OVA challenge mouse model of asthma", "assay": "PAS staining for lung mucus in OVA mouse model of asthma", "parameters": "species or system BALB/c mice", "details": "in vivo"}, "M2 muscarinic receptor": {"target": "M2 muscarinic receptor (Homo sapiens, UniProt P08172)", "sequence (P08172 whole entry)": "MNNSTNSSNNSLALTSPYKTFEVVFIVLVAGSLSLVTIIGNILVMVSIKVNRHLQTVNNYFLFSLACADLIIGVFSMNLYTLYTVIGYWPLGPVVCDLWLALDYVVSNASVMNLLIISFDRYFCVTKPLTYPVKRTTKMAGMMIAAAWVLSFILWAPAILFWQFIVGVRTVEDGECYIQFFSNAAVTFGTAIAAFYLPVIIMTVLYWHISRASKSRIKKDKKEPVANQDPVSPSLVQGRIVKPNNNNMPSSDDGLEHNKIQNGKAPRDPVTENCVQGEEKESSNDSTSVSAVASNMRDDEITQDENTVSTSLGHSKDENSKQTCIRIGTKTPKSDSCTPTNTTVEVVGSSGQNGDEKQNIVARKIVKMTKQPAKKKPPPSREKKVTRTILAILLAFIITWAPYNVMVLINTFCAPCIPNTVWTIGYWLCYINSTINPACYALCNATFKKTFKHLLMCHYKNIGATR", "assay": "M2 muscarinic receptor signaling in chem-1 cells (intracellular calcium)", "format": "cell-based", "details": "0.4, 2 or 10 μM"}, "M3 muscarinic receptor": {"target": "T1, M3 muscarinic receptor (Homo sapiens, UniProt P20309)", "T1 construct": "host or cells: chem-1 cells", "T1 sequence (P20309 whole entry)": "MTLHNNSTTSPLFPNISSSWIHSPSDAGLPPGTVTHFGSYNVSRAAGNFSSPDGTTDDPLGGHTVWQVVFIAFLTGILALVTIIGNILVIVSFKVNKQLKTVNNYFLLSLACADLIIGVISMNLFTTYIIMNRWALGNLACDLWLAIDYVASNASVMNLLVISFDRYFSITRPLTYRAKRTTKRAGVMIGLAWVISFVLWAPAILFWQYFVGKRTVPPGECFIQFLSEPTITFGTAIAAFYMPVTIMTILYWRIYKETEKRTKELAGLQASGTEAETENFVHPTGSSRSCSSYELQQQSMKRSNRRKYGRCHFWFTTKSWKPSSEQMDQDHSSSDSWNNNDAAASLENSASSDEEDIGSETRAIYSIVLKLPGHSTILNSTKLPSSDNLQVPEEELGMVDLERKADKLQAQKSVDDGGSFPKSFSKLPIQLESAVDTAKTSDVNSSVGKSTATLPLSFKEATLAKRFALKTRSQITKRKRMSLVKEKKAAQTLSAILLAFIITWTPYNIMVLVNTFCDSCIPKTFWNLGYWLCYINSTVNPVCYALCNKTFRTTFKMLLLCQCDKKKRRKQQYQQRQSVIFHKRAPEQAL", "assay": "M3 muscarinic receptor signaling in chem-1 cells (intracellular calcium)", "format": "cell-based", "details": "0.4, 2 or 10 μM"}},
  "note": "Where “and” joins values, the source holds several entries; their conditions need not be identical. Equal values may be shown once. Entries after “also recorded” stand apart in the source; their conditions may differ. Read-outs that look alike come from different tables or passages of the source.",
  "data": [
    {"molecule": "A. viscosus: bacterial sialidase enzyme from Actinomyces viscosus (SEQ ID NO:12) (protein, listed as Actinomyces viscosus) MTSHSPFSRRRLPALLGSLPLAATGLIAAAPPAHAVPTSDGLADVTITQVNAPADGLYSVGDVMTFNITLTNTSGEAHSYAPASTNLSGNVSKCRWRNVPAGTTKTDCTGLATHTVTAEDLKAGGFTPQIAYEVKAVEYAGKALSTPETIKGATSPVKANSLRVESITPSSSQENYKLGDTVSYTVRVRSVSDKTINVAATESSFDDLGRQCHWGGLKPGKGAVYNCKPLTHTITQADVDAGRWTPSITLTATGTDGATLQTLTATGNPINVVGDHPQATPAPAPDASTELPASMSQAQHLAANTATDNYRIPAITTAPNGDLLISYDERPKDNGNGGSDAPNPNHIVQRRSTDGGKTWSAPTYIHQGTETGKKVGYSDPSYVVDHQTGTIFNFHVKSYDQGWGGSRGGTDPENRGIIQAEVSTSTDNGWTWTHRTITADITKDKPWTARFAASGQGIQIQHGPHAGRLVQQYTIRTAGGAVQAVSVYSDDHGKTWQAGTPIGTGMDENKVVELSDGSLMLNSRASDGSGFRKVAHSTDGGQTWSEPVSDKNLPDSVDNAQIIRAFPNAAPDDPRAKVLLLSHSPNPRPWSRDRGTISMSCDDGASWTTSKVFHEPFVGYTTIAVQSDGSIGLLSEDAHNGADYGGIWYRNFTMNWLGEQCGQKPAEPSPAPSPTAAPSAAPTEKPAPSAAPSAEPTQAPAPSSAPEPSAAPEPSSAPAPEPTTAPSTEPTPAPAPSSAPEQTDGPTAAPAPETSSAPAAEPTQAPTVAPSVEPTQAPGAQPSSAPKPGATGRAPSVVNPKATGAATEPGTPSSSASPAPSRNAAPTPKPGMEPDEIDRPSDGTMAQPTGGASAPSAAPTQAAKAGSRLSRTGTNALLILGLAGVAVVGGYLLLRARRSKN", "values": [
      {"measurement": "stability in buffer", "setting": "[1]", "value": "stable"}
    ]},
    {"molecule": "AR-AvCD: recombinant AR-AvCD sialidase fusion protein made from Construct #2 (FIG. 5, SEQ ID NOs: 18 & 19) (protein) MVKRKKKGGKNGKNRRNRKKKNPGDHPQATPAPAPDASTELPASMSQAQHLAANTATDNYRIPAITTAPNGDLLISYDERPKDNGNGGSDAPNPNHIVQRRSTDGGKTWSAPTYIHQGTETGKKVGYSDPSYVVDHQTGTIFNFHVKSYDQGWGGSRGGTDPENRGIIQAEVSTSTDNGWTWTHRTITADITKDKPWTARFAASGQGIQIQHGPHAGRLVQQYTIRTAGGAVQAVSVYSDDHGKTWQAGTPIGTGMDENKVVELSDGSLMLNSRASDGSGFRKVAHSTDGGQTWSEPVSDKNLPDSVDNAQIIRAFPNAAPDDPRAKVLLLSHSPNPRPWSRDRGTISMSCDDGASWTTSKVFHEPFVGYTTIAVQSDGSIGLLSEDAHNGADYGGIWYRNFTMNWLGEQCGQKPAEGADYGGIWYRNFTMNWLGEQCGQKPAE", "values": [
      {"measurement": "reduction of mean AUC of nasal protein concentrations vs vehicle-treated infected animals", "setting": "influenza A (H1N1) virus; 8 infected treated ferrets", "value": "approximately 40%"},
      {"measurement": "mean AUC of nasal protein concentrations", "setting": "influenza A (H1N1) virus; 8 infected treated ferrets that shed virus, vehicle 4.48", "value": 2.68, "unit": "arbitrary units"},
      {"measurement": "reduction of AUC value for cell counts vs vehicle-treated infected animals", "setting": "influenza A (H1N1) virus; in vivo", "value": "approximately 3 fold"},
      {"measurement": "AUC value for inflammatory cell counts in nasal washes", "setting": "influenza A (H1N1) virus; infected treated ferrets, vehicle 1965", "value": 674, "unit": "arbitrary units"},
      {"measurement": "inflammatory response of infected ferrets", "setting": "influenza A (H1N1) virus", "value": "reduces the inflammatory responses"},
      {"measurement": "inflammatory response of infected ferrets", "setting": "influenza A (H1N1) virus; listed as fusion protein", "value": "the inflammatory response was reduced"},
      {"measurement": "number of inflammatory cells in the nasal washes", "setting": "influenza A (H1N1) virus; vs vehicle-treated infected animals", "value": "significant reduction in the number of inflammatory cells"}
    ]},
    {"molecule": "DAS181: fusion protein comprising a catalytic domain of a sialidase, and an anchoring domain (SEQ ID NO:21) (protein) MGDHPQATPAPAPDASTELPASMSQAQHLAANTATDNYRIPAITTAPNGDLLISYDERPKDNGNGGSDAPNPNHIVQRRSTDGGKTWSAPTYIHQGTETGKKVGYSDPSYVVDHQTGTIFNFHVKSYDQGWGGSRGGTDPENRGIIQAEVSTSTDNGWTWTHRTITADITKDKPWTARFAASGQGIQIQHGPHAGRLVQQYTIRTAGGAVQAVSVYSDDHGKTWQAGTPIGTGMDENKVVELSDGSLMLNSRASDGSGFRKVAHSTDGGQTWSEPVSDKNLPDSVDNAQIIRAFPNAAPDDPRAKVLLLSHSPNPRPWSRDRGTISMSCDDGASWTTSKVFHEPFVGYTTIAVQSDGSIGLLSEDAHNGADYGGIWYRNFTMNWLGEQCGQKPAKRKKKGGKNGKNRRNRKKKNP", "values": [
      {"measurement": "decrease of early asthmatic reaction (PenH) after OVA aerosol", "setting": "[2]; treated on day 15, vs sodium sulfate", "value": "~30", "unit": "%"},
      {"measurement": "decrease of early asthmatic reaction (PenH) after OVA aerosol", "setting": "[2]; treated on day 20", "value": "not on day 20"},
      {"measurement": "basal PenH", "setting": "[2]", "value": "0.25±0.01 and 0.28±0.01"},
      {"measurement": "basal PenH", "setting": "[2]; listed as Fludase®", "value": "0.27±0.02 and 0.31±0.03"},
      {"measurement": "number of eosinophils in BAL fluid", "setting": "[3]; guinea pig, in vivo", "value": "restore the number of eosinophils up to historical control levels"},
      {"measurement": "number of lymphocytes in BAL fluid", "setting": "[3]; guinea pig, in vivo", "value": "decreased"},
      {"measurement": "number of all inflammatory cells (macrophages, lymphocytes, neutrophils and eosinophils)", "setting": "[3]; inflammation caused by SOD or OVA", "value": "significantly decreased"},
      {"measurement": "neutrophil influx into the lungs (BAL)", "setting": "[3]; saline and OVA groups", "value": "completely prevented this influx"},
      {"measurement": "total number of cells in BAL fluid", "setting": "[3]; saline and OVA guinea pigs", "value": "decreases the total number of cells"},
      {"measurement": "total number of macrophages in BAL fluid", "setting": "[3]; treatment on day 15 and 20, saline and OVA guinea pigs", "value": "strongly decreased"},
      {"measurement": "Penh at 48 mg/ml Mch vs OVA challenged mice", "setting": "[4]", "value": "reduction in Penh"},
      {"measurement": "blood eosinophils vs OVA challenged mice", "setting": "[5]", "value": "significantly reduced blood eosinophils"},
      {"measurement": "PAS staining of airway epithelium (lung mucus) vs OVA challenged mice", "setting": "[6]", "value": "statistically significant reduction in PAS staining; also recorded: significantly reduced PAS staining"},
      {"measurement": "effect on potency of agonist-mediated M2 receptor signaling", "setting": "M2 muscarinic receptor", "value": "increased the potency of agonist-mediated M2 receptor signaling"},
      {"measurement": "effect on potency of agonist-mediated M3 receptor signaling", "setting": "M3 muscarinic receptor", "value": "decreased the potency of agonist-mediated M3 receptor signaling"}
    ]}
  ]
}
